Reference: the supplement of paper PMC11811203

B1: THAP1; numbered along this chain (parent)
chain: MVQSCSAYGCKNRYDKDKPVSFHKFPLTRPSLCKEWEAAVRRKNFKPTKYSSICSEHFTPDCFKRECNNKLLKENAVPTIFLCTEPHDKKEDLLEPQEQLPPPPLPPPVSQVDAAIGLLMPPLQTPVNLSVFCDHNYTVEDTMHQRKRIHQLEQQVEKLRKKLKTAQQRCRRQERQLEKLKEVVHFQKEKDDVSERGYVILPNDYFEIVEVPA

Variants of: B1
Assay: THAP1 transcriptional activity (GFP+/GFP- enrichment relative to wild-type constructs) (ratio to WT); higher = more THAP1 activity (PSMB5 reporter activation)
Conditions: with PSMB5 promoter-GFP reporter
Summary of the method: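 A site-saturation library of human THAP1 (residues 2–213, each changed to all 20 amino acids) was transduced by lentivirus at MOI ~0.3, in duplicate, into THAP1-knockout HEK-293T cells carrying mClover3 knocked in at endogenous PSMB5. After five days, BFP+ cells were sorted into GFP-dim and GFP-bright bins, and variants were counted by Illumina sequencing of genomic DNA amplicons. Activity is the replicate-mean bright/dim read fold change divided by the mean of wild-type synonymous constructs.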

Variant	THAP1 transcriptional activity
MVQSCSAYGCKNRYDKDKPVSFHKFPLTRPSLCKEWEAAVRRKNFKPTKYSSICSEHFTPDCFKRECNNKLLKENAVPTIFLCTEPHDKKEDLLEPQEQTPPPPLPPPVSQVDAAIGLLMPPLQTPVNLSVFCDHNYTVEDTMHQRKRIHQLEQQVEKLRKKLKTAQQRCRRQERQLEKLKEVVHFQKEKDDVSERGYVILPNDYFEIVEVPA [L100T]	1.6
MVQSCSAYGCKNRYDKDKPVSFHKFPLTRPSLCKEWEAAVRRKNFKPTKYSSICSEHFTPDCFKRECNNKLLKENAVPTIFLCTEPHDKKEDLLEPQEQSPPPPLPPPVSQVDAAIGLLMPPLQTPVNLSVFCDHNYTVEDTMHQRKRIHQLEQQVEKLRKKLKTAQQRCRRQERQLEKLKEVVHFQKEKDDVSERGYVILPNDYFEIVEVPA [L100S]	2.08
MVQSCSAYGCKNRYDKDKPVSFHKFPLTRPSLCKEWEAAVRRKNFKPTKYSSICSEHFTPDCFKRECNNKLLKENAVPTIFLCTEPHDKKEDLLEPQEQVPPPPLPPPVSQVDAAIGLLMPPLQTPVNLSVFCDHNYTVEDTMHQRKRIHQLEQQVEKLRKKLKTAQQRCRRQERQLEKLKEVVHFQKEKDDVSERGYVILPNDYFEIVEVPA [L100V]	1.84
MVQSCSAYGCKNRYDKDKPVSFHKFPLTRPSLCKEWEAAVRRKNFKPTKYSSICSEHFTPDCFKRECNNKLLKENAVPTIFLCTEPHDKKEDLLEPQEQYPPPPLPPPVSQVDAAIGLLMPPLQTPVNLSVFCDHNYTVEDTMHQRKRIHQLEQQVEKLRKKLKTAQQRCRRQERQLEKLKEVVHFQKEKDDVSERGYVILPNDYFEIVEVPA [L100Y]	0.692
MVQSCSAYGCKNRYDKDKPVSFHKFPLTRPSLCKEWEAAVRRKNFKPTKYSSICSEHFTPDCFKRECNNKLLKENAVPTIFLCTEPHDKKEDLLEPQEQWPPPPLPPPVSQVDAAIGLLMPPLQTPVNLSVFCDHNYTVEDTMHQRKRIHQLEQQVEKLRKKLKTAQQRCRRQERQLEKLKEVVHFQKEKDDVSERGYVILPNDYFEIVEVPA [L100W]	0.65
MVQSCSAYGCKNRYDKDKPVSFHKFPLTRPSLCKEWEAAVRRKNFKPTKYSSICSEHFTPDCFKRECNNKLLKENAVPTIFLCTEPHDKKEDLLEPQEQLIPPPLPPPVSQVDAAIGLLMPPLQTPVNLSVFCDHNYTVEDTMHQRKRIHQLEQQVEKLRKKLKTAQQRCRRQERQLEKLKEVVHFQKEKDDVSERGYVILPNDYFEIVEVPA [P101I]	1.27
MVQSCSAYGCKNRYDKDKPVSFHKFPLTRPSLCKEWEAAVRRKNFKPTKYSSICSEHFTPDCFKRECNNKLLKENAVPTIFLCTEPHDKKEDLLEPQEQLKPPPLPPPVSQVDAAIGLLMPPLQTPVNLSVFCDHNYTVEDTMHQRKRIHQLEQQVEKLRKKLKTAQQRCRRQERQLEKLKEVVHFQKEKDDVSERGYVILPNDYFEIVEVPA [P101K]	1.21
MVQSCSAYGCKNRYDKDKPVSFHKFPLTRPSLCKEWEAAVRRKNFKPTKYSSICSEHFTPDCFKRECNNKLLKENAVPTIFLCTEPHDKKEDLLEPQEQLLPPPLPPPVSQVDAAIGLLMPPLQTPVNLSVFCDHNYTVEDTMHQRKRIHQLEQQVEKLRKKLKTAQQRCRRQERQLEKLKEVVHFQKEKDDVSERGYVILPNDYFEIVEVPA [P101L]	1.19
MVQSCSAYGCKNRYDKDKPVSFHKFPLTRPSLCKEWEAAVRRKNFKPTKYSSICSEHFTPDCFKRECNNKLLKENAVPTIFLCTEPHDKKEDLLEPQEQLHPPPLPPPVSQVDAAIGLLMPPLQTPVNLSVFCDHNYTVEDTMHQRKRIHQLEQQVEKLRKKLKTAQQRCRRQERQLEKLKEVVHFQKEKDDVSERGYVILPNDYFEIVEVPA [P101H]	0.968
MVQSCSAYGCKNRYDKDKPVSFHKFPLTRPSLCKEWEAAVRRKNFKPTKYSSICSEHFTPDCFKRECNNKLLKENAVPTIFLCTEPHDKKEDLLEPQEQLCPPPLPPPVSQVDAAIGLLMPPLQTPVNLSVFCDHNYTVEDTMHQRKRIHQLEQQVEKLRKKLKTAQQRCRRQERQLEKLKEVVHFQKEKDDVSERGYVILPNDYFEIVEVPA [P101C]	0.582
MVQSCSAYGCKNRYDKDKPVSFHKFPLTRPSLCKEWEAAVRRKNFKPTKYSSICSEHFTPDCFKRECNNKLLKENAVPTIFLCTEPHDKKEDLLEPQEQLGPPPLPPPVSQVDAAIGLLMPPLQTPVNLSVFCDHNYTVEDTMHQRKRIHQLEQQVEKLRKKLKTAQQRCRRQERQLEKLKEVVHFQKEKDDVSERGYVILPNDYFEIVEVPA [P101G]	1.27
MVQSCSAYGCKNRYDKDKPVSFHKFPLTRPSLCKEWEAAVRRKNFKPTKYSSICSEHFTPDCFKRECNNKLLKENAVPTIFLCTEPHDKKEDLLEPQEQLFPPPLPPPVSQVDAAIGLLMPPLQTPVNLSVFCDHNYTVEDTMHQRKRIHQLEQQVEKLRKKLKTAQQRCRRQERQLEKLKEVVHFQKEKDDVSERGYVILPNDYFEIVEVPA [P101F]	0.64
MVQSCSAYGCKNRYDKDKPVSFHKFPLTRPSLCKEWEAAVRRKNFKPTKYSSICSEHFTPDCFKRECNNKLLKENAVPTIFLCTEPHDKKEDLLEPQEQLAPPPLPPPVSQVDAAIGLLMPPLQTPVNLSVFCDHNYTVEDTMHQRKRIHQLEQQVEKLRKKLKTAQQRCRRQERQLEKLKEVVHFQKEKDDVSERGYVILPNDYFEIVEVPA [P101A]	1.1
MVQSCSAYGCKNRYDKDKPVSFHKFPLTRPSLCKEWEAAVRRKNFKPTKYSSICSEHFTPDCFKRECNNKLLKENAVPTIFLCTEPHDKKEDLLEPQEQLNPPPLPPPVSQVDAAIGLLMPPLQTPVNLSVFCDHNYTVEDTMHQRKRIHQLEQQVEKLRKKLKTAQQRCRRQERQLEKLKEVVHFQKEKDDVSERGYVILPNDYFEIVEVPA [P101N]	3.11
